Measured values taken from patent US20260184815A1 (published 2026).

Molecular target: T1, human plasma kallikrein (human, UniProt P03952 20-390; P03952 391-638)
T1 construct: also called pKal; Human pKal
Test: ELISA, biotinylated pKal signal over streptavidin background
Description: Abbreviations used: “T/B” is the ELISA signal obtained using of the “target” (biotinylated plasma kallikrein) divided by the ELISA signal of the “background” (streptavidin); both of which were coated on microtiter plates, “nd” is not determined. The symbol “q” refers to the amber suppressible stop codon (TAG), which is translated as glutamine (Q) in strains of E. coli such as the TG1 cells that were used to express the Fab fragments.

T1 sequence (P03952 20-390, chain 1 of 2): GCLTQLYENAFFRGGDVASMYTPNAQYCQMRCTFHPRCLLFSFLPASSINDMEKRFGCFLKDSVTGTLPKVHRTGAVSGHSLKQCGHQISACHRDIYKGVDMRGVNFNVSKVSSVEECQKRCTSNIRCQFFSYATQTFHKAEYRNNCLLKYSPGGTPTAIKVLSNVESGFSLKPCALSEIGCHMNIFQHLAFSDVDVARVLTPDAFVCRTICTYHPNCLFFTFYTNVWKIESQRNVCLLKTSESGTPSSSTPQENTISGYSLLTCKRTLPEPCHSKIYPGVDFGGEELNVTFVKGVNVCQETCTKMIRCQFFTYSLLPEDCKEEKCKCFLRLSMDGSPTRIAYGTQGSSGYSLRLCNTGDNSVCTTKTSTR
T1 sequence (P03952 391-638, chain 2 of 2): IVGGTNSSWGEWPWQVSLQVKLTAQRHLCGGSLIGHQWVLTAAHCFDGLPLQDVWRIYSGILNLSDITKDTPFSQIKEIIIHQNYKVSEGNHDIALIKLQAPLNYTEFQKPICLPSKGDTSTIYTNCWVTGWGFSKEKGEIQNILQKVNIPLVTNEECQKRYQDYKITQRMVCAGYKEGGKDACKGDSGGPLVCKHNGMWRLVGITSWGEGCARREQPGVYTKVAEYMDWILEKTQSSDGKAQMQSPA

| Binder | ELISA (T/B) |
| --- | --- |
| M28-F01 (Fab, V domains shown, HC as printed runs into CH1) VH: EVQLLESGGGLVQPGGSLRLSCAASGFTFSVYLMHWVRQAPGKGLEWVSGISPSGGYTQYADSVKGRFTISRDNSKNTLYLQMNSLRAEDTAVYYCARPGGLDAFDIWGQGTMVTVSS VL: DIQMTQSPSSLSASVGDRVTITCRASQSINTYLNWYQQKPGKAPKVLIHAASTLESGVPSRFSGSGSGTDFTLTISSLQPEDFATYYCQQSYSTPPTFGQGTKVEIK | 1.5 T/B |
| M29-C07 (Fab, V domains shown, HC as printed runs into CH1) VH: EVQLLESGGGLVQPGGSLRLSCAASGFTFSGYDMMWVRQAPGKGLEWVSVISSSGGNTAYADSVKGRFTISRDNSKNTLYLQMNSLRAEDTAVYYCARESSGLYYFDYWGQGTLVTVSS VL: not shown | 5.2 T/B |
| M28-F07 (Fab, V domains shown, HC as printed runs into CH1) VH: EVQLLESGGGLVQPGGSLRLSCAASGFTFSDYTMYWVRQAPGKGLEWVSSIVPSGGHTLYADSVKGRFTISRDNSKNTLYLQMNSLRAEDTAVYYCAKDHLSSWYGGFFDYWGQGTLVTVSS VL: DIQMTQSPSSVSASVGDRVTITCRASQGISSWLAWYQQKPGKAPKLLIYATSGLQSGVPSRFSGSGSGTDFTLTISSLQPEDFATYYCQQAKSFPLTFGGGTRVEIK | 33 T/B |
| M7-E07 (Fab, V domains shown, HC as printed runs into CH1) VH: EVQLLESGGGLVQPGGSLRLSCAASGFTFSWYLMIWVRQAPGKGLEWVSYIYPSGGFTYYADSVKGRFTISRDNSKNTLYLQMNSLRAEDMAVYYCARTEGPLSWGYGMDVWGQGTTVTVSS VL: not shown | 45.7 T/B |
| M7-B04 (Fab, V domains shown, HC as printed runs into CH1) VH: EVQLLESGGGLVQPGGSLRLSCAASGFTFSWYSMVWVRQAPGKGLEWVSSISPSGGLTNYADSVKGRFTISRDNSKNTLYLQMNSLRAEDTAVYYCARHTAARPFYYYYMDVWGKGTTVTVSS VL: QSALTQPASVSGSPGQSITISCTGTNSDVGNYNLVSWYQQHPGEAPKLLIYEVNKRPSGVSNRFSGSKSGNTASLTISGLQAEDEADYLCCSYAGNRNFYVFGAGTKVTVL | 4.1 T/B |
| M6-D09 (Fab, V domains shown, HC as printed runs into CH1; also called M06-D09; 559A-M0006-D09) VH: EVQLLESGGGLVQPGGSLRLSCAASGFTFSFYYMVWVRQAPGKGLEWVSVIYPSGGITVYADSVKGRFTISRDNSKNTLYLQMNSLRAEDTAVYYCARDKWAVMPPYYYYAMDVWGQGTTVTVSS VL: DIQMTQSPSSLSASVGDRVTITCRASQSIRNYLNWYQQKPGKAPNLLIYAASTLQSGVPARFSGSGSGTDFTLTISSLQPEDFATYYCQQLSGYPHTFGQGTKLEIK | 39.9 T/B |
| M29-D10 (Fab, V domains shown, HC as printed runs into CH1) VH: EVQLLESGGGLVQPGGSLRLSCAASGFTFSWYPMYWVRQAPGKGLEWVSSIGSSGGPTPYADSVKGRFTISRDNSKNTLYLQMNSLRAEDTAVYYCARWADYGGSLDYWGQGTLVTVSS VL: DIQMTQSPSSLSASVGDTVSITCRASQSITIYLNWYQHKPGKAPNLLIYGASNLHSGVPSRFSGSGSGTDFTLTISSLQPEDFATYYCQQSYDTPLTFGGGTKVEIK | 23.6 T/B |

The next lines start with the values.

| ELISA (T/B) | Binder |
| --- | --- |
| 10.3 T/B | M76-G02 (Fab, V domains shown, HC as printed runs into CH1) VH: EVQLLESGGGLVQPGGSLRLSCAASGFTFSLYAMWWVRQAPGKGLEWVSYISSSGGFTSYADSVKGRFTISRDNSKNTLYLQMNSLRAEDTAVYYCARYRVGVAATDYWGQGTLVTVSS VL: not shown |
| 13.4 T/B | M76-H02 (Fab, V domains shown, HC as printed runs into CH1) VH: EVQLLESGGGLVQPGGSLRLSCAASGFTFSMYWMQWVRQAPGKGLEWVSYIYPSGGPTKYADSVKGRFTISRDNSKNTLYLQMNSLRAEDTAVYYCARPSGSYGDAFDIWGQGTMVTVSS VL: DIQMTQSPSSLSASEGDRVTITCRASQDISVYLNWYQMKSGKAPKLLIYGGASLQSGVPARFSGSGYGTDFTLTITDLRPEDFATYYCQQSYSLPFTFGGGTKVEIK |
| 16.1 T/B | M77-C07 (Fab, V domains shown, HC as printed runs into CH1) VH: EVQLLESGGGLVQPGGSLRLSCAASGFTFSLYIMGWVRQAPGKGLEWVSGIYPSGGFTMYADSVKGRFTISRDNSKNTLYLQMNSLRAEDTAVYYCARESSGVAAPDYWGQGTLVTVSS VL: DIQMTQSPSTLSASVGDRVTITCRASQNISSYLNWYQQKPGKAPKLLIYAASSLQSGVPSRFSGSGSGTDFTLTISSLQPEDFATYSCQQSYSTPRTFGQGTKVEIK |
| 6.4 T/B | M76-F02 (Fab, V domains shown, HC as printed runs into CH1) VH: EVQLLESGGGLVQPGGSLRLSCAASGFTFSLYDMNWVRQAPGKGLEWVSGISPSGGQTMYADSVKGRFTISRDNSKNTLYLQMNSLRAEDTAVYYCARQPMISAFDIWGQGTMVTVSS VL: DIQMTQSPSSLSASVGDRVTITCRASQTIDNYLHWYQQKPGKAPKVLIHDASSLQSGVPPRFSGSGSGTDFTLTISSLQPEDFATYYCQQSYDTPQYTFGQGTKLEIK |
| 7.6 T/B | M77-H04 (Fab, V domains shown, HC as printed runs into CH1) VH: EVQLLESGGGLVQPGGSLRLSCAASGFTFSYYTMIWVRQAPGKGLEWVSGIRSSGGGTRYADSVKGRFTISRDNSKNTLYLQMNSLRAEDTAVYYCAKDGSRYSYGSIYYYYGMDAWGQGTTVTVSS VL: not shown |
| 16.4 T/B | M29-G10 (Fab, V domains shown, HC as printed runs into CH1) VH: EVQLLESGGGLVQPGGSLRLSCAASGFTFSFYKMIWVRQAPGKGLEWVSSISSSGGSTQYADSVKGRFTISRDNSKNTLYLQMNSLRAEDTAVYYCARDRVDLGYLDYWGQGTLVTVSS VL: DIQMTQSPSSLSSSVGDSATITCRASQSISIYLNWYQQKPGKAPKILIYGASQLESGVPSRFSGSGSGTDFTLTVSGLQPEDFATYWCQQSYNVPYTFGQGTKLEIK |
| 8.6 T/B | M74-A07 (Fab, V domains shown, HC as printed runs into CH1) VH: EVQLLESGGGLVQPGGSLRLSCAASGFTFSQYLMMWVRQAPGKGLEWVSSIYPSGGYTSYADSVKGRFTISRDNSKNTLYLQMNSLRAEDTAVYYCARVSTAVADNDYWGQGTLVTVSS VL: DIQMTQSPSSLSASVRDRVTITCRTSQNINTYLNWYYQAPGRAPKLLIFGVSSLHRGVSSRFSGSGDGTEFTLTISSLQPEDIGTYFCQQSYSSPWTFGQGTKVEIK |
| 2 T/B | M29-E02 (Fab, V domains shown, HC as printed runs into CH1) VH: EVQLLESGGGLVQPGGSLRLSCAASGFTFSRYPMMWVRQAPGKGLEWVSVIYPSGGDTFYADSVKGRFTISRDNSKNTLYLQMNSLRAEDTAVYYCASGDDYLWEAAVYWGQGTLVTVSS VL: QSVLTQPPSVSEAPRQRVTISCSGSSSNIGNNAVSWYQQLPGKAPKLLIYYDDLLPSGVSDRFSGSKSGTSASLAISGLRSEDEADYYCAAWDDSLNGFVFGTGTKVTVL |
| 40.4 T/B | M29-G08 (Fab, V domains shown, HC as printed runs into CH1) VH: EVQLLESGGGLVQPGGSLRLSCAASGFTFSYYHMWWVRQAPGKGLEWVSGISPSGGFTFYADSVKGRFTISRDNSKNTLYLQMNSLRAEDTAVYYCARDYYYDSSGYSPLGYWGQGTLVTVSS VL: DIQMTQSPATLSASPGETVTLSCRASQNIGNDVAWYRQRPGQAPRLLIHHASTRAYGIPARLRGSGSATEFTLTITSLEPEDFAIYYCQQFYDWPAHTFALGTRLEIKR |
| 11.8 T/B | M76-G06 (Fab, V domains shown, HC as printed runs into CH1) VH: EVQLLESGGGLVQPGGSLRLSCAASGFTFSGYIMHWVRQAPGKGLEWVSWIYPSGGWTEYADSVKGRFTISRDNSKNTLYLQMNSLRAEDTAVYYCARDAPGVGAIDYWGQGTLVTVSS VL: DIQMTQSPSSLSASVRDRVTITCRASQSISTYLNWYQQKPGEAPKLLVFAASSLQSGVPSRFSGSGSGTDFTLSISSLQPEDFATYYCQQSYSTPHTFGQGAKVEIK |
